Data reported in paper PMC10034468, “The Pseudomonas aeruginosa PAO1 metallo flavoprotein D-2-hydroxyglutarate dehydrogenase requires Zn^2+ for substrate orientation and activation” (The Journal of Biological Chemistry, 2023).

How the values were obtained:
[1] = substrate: O=C(O)CC[C@@H](O)C(=O)O; assay: steady-state oxygen consumption, Clark-type electrode; assay type: biochemical, Pseudomonas aeruginosa; conditions: E-Zn2+, PMS as co-substrate, 25 mM NaPO4, pH 7.4, 25 °C
From the text: (§1) steady-state oxygen consumption, Clark-type electrode on PaD2HGDH (E-Zn^2+ and E-Co^2+)

[2] = substrate: O=C(O)C[C@@H](O)C(=O)O; assay: as above; assay type: biochemical, Pseudomonas aeruginosa; conditions: E-Zn2+, PMS as co-substrate, 25 mM NaPO4, pH 7.4, 25 °C
From the text: as §1

B1: PaD2HGDH (E-Zn^2+ and E-Co^2+) (Pseudomonas aeruginosa PAO1) (protein)
chain: MTREALIESLKPLVEPGKLLDDAASLDAYGKDWTKHFAPAPLAIVFPKSVEQVQAIVRWANQHKVGLVPSGGRTGLSAAAVAANGEVVVAFDYMNRILDFNAFDRTVVCQPGVVTKQLQTFAEENGLYYPVDFASSGSSQIGGNIGTNAGGIKVIRYGMTRNWVAGMKVVTGKGDLLELNKDLIKNATGYDMRQLFIGAEGTLGFVVEATMRLERTPKNLTAMVLGTPDFDSIMPVLHAFQSKLDLTAFEFFSDKALAKVLARGDVPRAFETDCPFYALLEFEATTEEVANEALATFEHCVEQGWVLDGVMSQSEQQLQNLWKLREYISETISHWTPYKNDISVTVSRVPAFLKDIDAIVEANYPDFEVVWFGHIGDGNLHLNILKPENLGKDEFFAKCATVNKWVFETVEKYNGSISAEHGVGMTKRDYLTYTRSETEIAYMKALKAVFDPNGIMNPGKIFAE
notes: FAD enzyme
Question: How did the Km [1] turn out when B1 was run?
Answer: The Km was 0.08 ± 0.01 mM.

Question: And the kcat [1]?
Answer: The kcat was 26 ± 1 s⁻¹.

Question: What about the kcat/Km [1] of the same protein?
Answer: The kcat/Km was 330000 ± 43000 M⁻¹ s⁻¹.

Question: And the Km [2]?
Answer: Its Km is 6.0 ± 0.6 mM.

Question: And the kcat [2]?
Answer: The kcat was 52 ± 2 s⁻¹.

Question: What about the kcat/Km [2] of the same protein?
Answer: The kcat/Km was 9000 ± 900 M⁻¹ s⁻¹.
